The record followed here is the RNAGym collection of RNA variant scans (doi:10.1021/acssynbio.7b00057).

The labels stand for the following.
B1: Pistol ribozyme (parent)
chain: GGGUCGUUGUUCCAUAAUCGCGUGGAUAUGGCACGCAAGUUUCUACCGGGCACCGUAAAUGUCCGACUGGAGCCGUUCGGGCGGCUAUAAACAGACCUCAGGCCCGAAGCGUGGCGGCACCUGCCGCCGGUGGUAAAAAAGAUCGGAAGAGCACACGUCU

In this data set the parent is B1. Put plainly: aptazyme ON/OFF ratio, guanine; higher = stronger switching; co-transcriptional cleavage with and without guanine.
Consider U7C U8A U10A U11A C12G, for which the “aptazyme ON/OFF ratio” value worked out at 1.2.

For the variant U7C U8A U10A U11A C12A, the “aptazyme ON/OFF ratio” value was 1.15.

Regarding U7C U8A U10A U11G C12U C13U, the “aptazyme ON/OFF ratio” value was determined as 1.2.

For U7C U8A U10A U11G C12U C13G, the “aptazyme ON/OFF ratio” value amounted to 1.29.

Consider U7C U8A U10A U11G C12U C13A, for which the “aptazyme ON/OFF ratio” value is 1.18.

With U7C U8A G9U U10G U11C, the “aptazyme ON/OFF ratio” value amounted to 1.07.

On to U7C U8A G9U U10G U11G, for which the “aptazyme ON/OFF ratio” value worked out at 1.08.

U7C U8A G9U U10G U11A: the “aptazyme ON/OFF ratio” value was 1.05.

For U7C U8A U10A U11A C12A C13G, the “aptazyme ON/OFF ratio” value is 1.17.

Consider U7C U8A U10A U11A C12A C13U, for which the “aptazyme ON/OFF ratio” value was 1.31.

Turning to U7C U8A U10A U11A C12A C13A, the “aptazyme ON/OFF ratio” value was 1.25.

As for U7C U8A U10G C13G, the “aptazyme ON/OFF ratio” value was 1.14.

With U7C U8A U10G C13U, the “aptazyme ON/OFF ratio” value was 1.28.

In the case of U7C U8A U10G C13A, the “aptazyme ON/OFF ratio” value is 1.52.

U7C U8A U10C C13U: the “aptazyme ON/OFF ratio” value turned out to be 3.34.

In the case of U7C U8A U10C C13G, the “aptazyme ON/OFF ratio” value worked out at 1.22.

On to U7C U8A U10C C13A, for which the “aptazyme ON/OFF ratio” value came out at 1.09.

For U7C U8A G9U U11A C13A, the “aptazyme ON/OFF ratio” value came to 1.2.

For the variant U7C U8A G9U U11A C13G, the “aptazyme ON/OFF ratio” value turned out to be 1.05.

Turning to U7C U8A G9U U11A C13U, the “aptazyme ON/OFF ratio” value was determined as 1.17.

For U7C U8A U10A C12G C13A, the “aptazyme ON/OFF ratio” value stood at 1.32.

Turning to U7C U8A U10A C12G C13U, the “aptazyme ON/OFF ratio” value turned out to be 1.26.

On to U7C U8A U10A C12G C13G, for which the “aptazyme ON/OFF ratio” value came out at 1.22.

As to U7C U8A G9U U10G U11A C12A, the “aptazyme ON/OFF ratio” value was found to be 1.34.

As for U7C U8A G9U U10G U11A C12U, the “aptazyme ON/OFF ratio” value was determined as 1.06.

As to U7C U8A G9U U10G U11A C12G, the “aptazyme ON/OFF ratio” value is 1.21.

As to U7C U8A G9U U10C C12U, the “aptazyme ON/OFF ratio” value was 1.13.

Turning to U7C U8A G9U U10C C12G, the “aptazyme ON/OFF ratio” value came to 1.22.

On to U7C U8A U10C U11G C12A C13A, for which the “aptazyme ON/OFF ratio” value worked out at 1.16.

As for U7C U8A U10C U11G C12A C13G, the “aptazyme ON/OFF ratio” value turned out to be 1.21.

Turning to U7C U8A U10C U11G C12A C13U, the “aptazyme ON/OFF ratio” value stood at 1.14.

For the variant U7C U8A U10C U11A, the “aptazyme ON/OFF ratio” value was 1.16.

As to U7C U8A U10C U11C, the “aptazyme ON/OFF ratio” value is 1.05.

In the case of U7C U8A U10C U11G, the “aptazyme ON/OFF ratio” value was determined as 1.34.

In the case of U7C U8A G9U U11A C12U C13U, the “aptazyme ON/OFF ratio” value is 1.22.

With U7C U8A G9U U11A C12U C13A, the “aptazyme ON/OFF ratio” value stood at 1.16.

For U7C U8A G9U U11A C12U C13G, the “aptazyme ON/OFF ratio” value is 1.23.

For U7C U8A G9U U10C U11A C12G C13G, the “aptazyme ON/OFF ratio” value amounted to 1.09.

On to U7C U8A G9U U10C U11A C12G C13A, for which the “aptazyme ON/OFF ratio” value came to 1.1.

On to U7C U8A G9U U10C U11A C12G C13U, for which the “aptazyme ON/OFF ratio” value was 1.13.

For U7C U8A U10A U11A C12U C13G, the “aptazyme ON/OFF ratio” value was found to be 1.35.

For U7C U8A U10A U11A C12U C13U, the “aptazyme ON/OFF ratio” value came out at 1.13.

Consider U7C U8A U10A U11A C12U C13A, for which the “aptazyme ON/OFF ratio” value came to 1.23.

With U7C U8A G9U U10G U11C C13G, the “aptazyme ON/OFF ratio” value is 1.07.

As for U7C U8A G9U U10G U11C C13U, the “aptazyme ON/OFF ratio” value was determined as 1.05.

For the variant U7C U8A G9U U10G U11C C13A, the “aptazyme ON/OFF ratio” value came out at 1.2.

Turning to U7C U8A G9U U10C U11C C12U C13U, the “aptazyme ON/OFF ratio” value is 1.02.

U7C U8A G9U U10C U11C C12U C13G: the “aptazyme ON/OFF ratio” value was found to be 1.02.

For U7C U8A G9U U10C U11C C12U C13A, the “aptazyme ON/OFF ratio” value came to 1.03.

U7C U8A U10G C12A: the “aptazyme ON/OFF ratio” value is 1.21.

Consider U7C U8A U10G C12U, for which the “aptazyme ON/OFF ratio” value worked out at 1.34.

As for U7C U8A U10G C12G, the “aptazyme ON/OFF ratio” value is 1.34.

Turning to U7C U8A G9U U10G C12G C13U, the “aptazyme ON/OFF ratio” value was 1.22.

On to U7C U8A G9U U10G C12G C13G, for which the “aptazyme ON/OFF ratio” value was determined as 1.12.

Consider U7C U8A G9U U10G C12G C13A, for which the “aptazyme ON/OFF ratio” value is 1.12.

Take U7C U8A U10G C12U C13G: the “aptazyme ON/OFF ratio” value amounted to 1.13.

U7C U8A U10G C12U C13U: the “aptazyme ON/OFF ratio” value was 1.24.

Regarding U7C U8A U10G C12U C13A, the “aptazyme ON/OFF ratio” value was 1.34.

For U7C U8A U10A U11C C12U C13G, the “aptazyme ON/OFF ratio” value is 1.04.

Turning to U7C U8A U10A U11C C12U C13A, the “aptazyme ON/OFF ratio” value was 1.08.

Consider U7C U8A U10A U11C C12U C13U, for which the “aptazyme ON/OFF ratio” value was found to be 1.04.

As to U7C U8A U10A U11G C13A, the “aptazyme ON/OFF ratio” value was 1.15.

Turning to U7C U8A U10A U11G C13G, the “aptazyme ON/OFF ratio” value was determined as 1.04.

Take U7C U8A U10A U11G C13U: the “aptazyme ON/OFF ratio” value is 1.21.

As for U7C U8A U10C U11C C12U C13G, the “aptazyme ON/OFF ratio” value was found to be 1.05.

Take U7C U8A U10C U11C C12U C13A: the “aptazyme ON/OFF ratio” value amounted to 1.06.

In the case of U7C U8A U10C U11C C12U C13U, the “aptazyme ON/OFF ratio” value is 1.06.

With U7C U8A G9U U11G C12G C13U, the “aptazyme ON/OFF ratio” value worked out at 1.14.

For the variant U7C U8A G9U U11G C12G C13G, the “aptazyme ON/OFF ratio” value turned out to be 1.16.

With U7C U8A G9U U11G C12G C13A, the “aptazyme ON/OFF ratio” value is 1.14.

Take U7C U8A G9U U11G C12A C13A: the “aptazyme ON/OFF ratio” value came out at 1.12.

For the variant U7C U8A G9U U11G C12A C13G, the “aptazyme ON/OFF ratio” value came to 1.16.

In the case of U7C U8A G9U U11G C12A C13U, the “aptazyme ON/OFF ratio” value was 1.2.

In the case of U7C U8A U10C U11A C12G C13U, the “aptazyme ON/OFF ratio” value is 1.09.

For U7C U8A U10C U11A C12G C13G, the “aptazyme ON/OFF ratio” value is 1.25.

In the case of U7C U8A U10C U11A C12G C13A, the “aptazyme ON/OFF ratio” value is 1.14.

With U7C U8A G9U U10C U11G C12G C13A, the “aptazyme ON/OFF ratio” value worked out at 1.16.

Consider U7C U8A G9U U10C U11G C12G C13U, for which the “aptazyme ON/OFF ratio” value is 1.11.

As to U7C U8A G9U U10C U11G C12G C13G, the “aptazyme ON/OFF ratio” value worked out at 1.08.

As to U7C U8A U10A U11C C12A C13G, the “aptazyme ON/OFF ratio” value came to 1.06.

For the variant U7C U8A U10A U11C C12A C13A, the “aptazyme ON/OFF ratio” value was 1.06.

For U7C U8A U10A U11C C12A C13U, the “aptazyme ON/OFF ratio” value was found to be 1.06.

Regarding U7C U8A G9U U10C U11G C12A C13A, the “aptazyme ON/OFF ratio” value worked out at 1.11.

As to U7C U8A G9U U10C U11G C12A C13U, the “aptazyme ON/OFF ratio” value came to 1.1.
